Experimental data: the Human Domainome abundance scans (Beltran et al. 2025)

B1: Max-interacting protein 1, residues 70 to 120; numbered along this chain, P50539 (parent)
chain: STHNELEKNRRAHLRLCLERLKVLIPLGPDCTRHTTLGLLNKAKAHIKKLE
B2: POU domain, class 2, transcription factor 2, residues 200 to 269; numbered along this chain, P09086 (parent)
chain: LEELEQFARTFKQRRIKLGFTQGDVGLAMGKLYGNDFSQTTISRFEALNLSFKNMCKLKPLLEKWLNDAE

Variants of: B1
Test: abundance fitness (aPCA) (normalised: wild type 0, dead -1); higher = more abundant; growth selection in yeast, the domain comes from the species named
Details: Homo sapiens

Abundance fitness, by site and new letter:
G38: T -0.069
A45: M -0.276
K49: Y -0.746
T2: R -0.631
A12: R -0.327
L37: Y -0.172 | M -0.124
L50: Y -0.351
T36: I -0.028
R20: E -0.929
H13: L 0.02
K42: C -0.185
S1: M -0.797
L16: R 0.165
L39: P -0.597
C31: S 0.168 | H 0.308

Variants of: B2
Test: as above
Details: Homo sapiens

Abundance fitness, by site and new letter:
R9: K -0.011 | Q -0.143
F20: L -0.004 | R -0.083 | V -0.13 | I -0.101 | K 0.005 | N -0.427 | H -0.035 | Y -0.111 | T -0.317 | P -1.01 | S -0.207 | D -0.899 | W -0.065 | A -0.006 | Q -0.081
A8: C 0.034 | D -0.883 | S -0.113 | Y -0.955 | T -0.065 | E -0.846 | Q -0.63 | I -0.082 | L -0.371 | W -0.452 | H -0.604 | K -0.856 | V -0.057 | P -0.506 | F -0.708 | G -0.28
F7: K -0.783 | R -0.96 | C -0.114 | H -0.416 | N -0.48 | V -0.237 | L -0.286 | E -0.357 | T -0.281 | P -1.13 | D -0.595 | Q -0.676 | W -0.1 | M -0.226 | Y -0.192 | I -0.397
G19: I -0.793 | C -0.349 | D -0.143 | E -0.301 | H -0.086 | S -0.118 | K -0.092 | N -0.022 | P -0.98 | W -0.926 | M -0.268 | L -0.321 | T -0.521 | V -0.986 | Y -0.908 | Q -0.498 | R -0.128 | F -0.461
Q6: M 0.027 | W -0.086 | A -0.095 | R -0.019 | P -0.151 | L -0.066 | H -0.236 | N -0.141 | Y -0.056 | K 0.079 | I -0.028 | E -0.045 | T 0.003 | V -0.05 | F -0.086 | D 0.001 | S 0.001 | G -0.048
R15: Q -1.04 | Y -0.243 | E -0.897 | G -1.01 | P -1.16 | S -1 | I -0.85 | A -0.977 | C -0.698 | N -0.799 | L -0.806 | V -0.806 | H -1.13 | K -1.08 | T -1.01 | W -0.913 | F -0.99
T21: F -0.625 | E -0.165 | C -0.212 | A -0.138 | G -0.135
E2: H -0.366 | M 0.173 | N 0.259 | C -0.699 | R -0.066 | K -0.02 | G -0.046 | Y -0.106 | V -0.062 | T -0.274 | A -0.14 | W 0.039 | P -0.689 | Q -0.171 | D 0.054
R14: V -0.128 | W -0.271 | D -0.327 | Y -0.149 | I -0.261 | Q -0.084 | T 0.023 | M -0.061 | N 0.03 | H -0.118 | E -0.138 | G -0.021 | P -1.23 | A -0.064 | K 0.024
L1: W -0.051 | C -0.496 | F -0.028 | T 0.016 | G 0.01 | I -0.11 | R -0.169 | V -0.061 | M -0.081 | D -0.279 | N 0.008 | S -0.027
L4: Y -0.408 | H 0.052 | D -0.64 | E -0.523 | N -0.763 | K -0.797 | T -0.11 | S -0.253 | A -0.181 | G -0.655 | I 0.012 | C -0.784 | W -0.201 | R -0.485 | V -0.08 | M -0.032 | P -0.367 | F -0.055 | Q -0.233
K12: R -0.142 | S -0.022 | W -0.337 | L -0.232 | A -0.254 | I 0.02 | N -0.583 | E -0.147 | H -0.127
I16: D -0.133 | F -0.141 | V -0.039 | K -0.021 | G -0.095 | Y -0.194 | Q -0.013 | A -0.085 | M -0.06 | E 0.048 | N -0.003 | C -0.149 | T 0.017 | P -0.895 | R -0.059 | S -0.071 | L -0.042 | H -0.16
Q13: F -0.032 | N -0.07 | L -0.033 | H -0.085 | S -0.006 | C -0.115 | T 0.001 | D -0.04 | P -0.293 | E 0.06 | K -0.041 | Y -0.169 | W -0.172 | G -0.038 | M -0.023 | V -0.023 | R -0.054
T10: P -1 | Y -0.025 | V -0.04 | F 0.003 | W -0.142 | Q 0.015 | K -0.024 | A -0.035 | D 0.022 | S -0.016 | N 0.012 | H -0.013 | I -0.052 | R -0.022 | E 0.012 | M -0.011 | C -0.084
K17: Q -0.096 | A -0.049 | C 0.011 | D 0.016 | V -0.063 | W -0.129 | F -0.096 | L -0.006 | M 0.001 | I -0.072 | N 0.02 | G -0.027 | Y -0.121 | S -0.009 | T -0.07 | R 0.006 | E -0.082 | H -0.2
E5: C -0.07 | W -0.073 | A 0.005 | M 0.048 | D -0.051 | R 0 | H 0.074 | Q -0.057 | Y -0.161 | P -0.5 | V -0.052 | L -0.093 | N -0.224 | I -0.293 | F -0.214 | G -0.034
L18: C -0.213 | Y -0.16 | W -0.216 | D -0.763 | R -0.233 | A -0.025 | V -0.234 | Q -0.053 | K -0.177 | T -0.227 | M 0.014 | N -0.044 | F -0.035 | G -0.159 | H -0.049 | P -1.05 | I -0.099 | E -0.253 | S -0.193
F11: T -0.495 | A -0.151 | Y -0.627 | E -0.977 | G -0.789 | P -1.03 | D -0.565 | L -0.177 | N -1.1 | C -0.143 | R -1.01 | M -0.167 | S -0.242 | I -0.254 | Q -1.01 | W -0.209 | K -0.961 | V -0.239
E3: Y -0.127 | F -0.208 | V -0.085 | R -0.162 | C -0.187 | Q -0.003 | N -0.107 | W -0.263 | L -0.137 | A -0.123 | D -0.087 | M -0.443 | K -0.189 | T -0.159 | G -0.154 | I -0.078 | P -0.76
